From paper doi:10.1101/2025.11.17.688879 (bioRxiv, 2025) come the findings set out here.

To fix the notation:
B1: HA-DrSTING stably expressed in MEF Sting-/- cells (MEF^DrSTING) (natural protein, Danio rerio)
chain: MSVMGEDALVPRARSRLPVMCAAGLGFLTLAVAWLLDSDKFSERAGIIAFGLMLERFIYCICLLAEELLFHSRQRYHGRMSEIFRACFRGSGILGMCAIFLMLMLGGVSFSVKQWSHFNLMCAGYMLLNSLGVLGPAPVEISEICEAKKMNVAHGLAWSFYIGYLKFLLPALEVNVREYSRRERLSSPRLHILLPLNARVPSKPEEEDTNVVFHENLPDLKLDRAGVRKRSYTNSVYKITHNNETFSCILEYATPLLTLYQMSQESSAGFGERERKQQVLLFYRTLSQILDNSLECRNRYRLILLNDEHTGDPHYLSRELFQNLKQQDGEIFMDPTNEVHPVPEEGPVGNCNGALQATFHEEPMSDEPTLMFSRPQSLRSEPVETTDYFNPSSAMKQN
B2: HA-MbSTING stably expressed in MEF Sting-/- cells (MEF^MbSTING) (natural protein, Monosiga brevicollis)
chain: MMVNLSDLSHLSQRGWAQVFVTLAAAAISIFYFSFSPFEVAAGICASIAAAGAVPLLFDAVHYLIAFCISAPDARPPLRTVWTKTRLQRWSGLSILTFIVLACGLYFASPSPMSASNLFAVFALSLCNSVFSAMVAPRCGRLEVVDLATHPNTVLFRDFGAASAMSYWHGYLQHIAGDRAALEERFRDSDVGGMRVPRKLYILVPQDCEVNASDNKYEGLKATEHYISPKPITIGGVVDREMGKHTLYTPSESAETASVAFAMELASPLNTMKNALKDAAEGLLELQSEAFYLTLRGILKQEGVLDQGNDEGMIKLVWGKNRSEVLKKMRAEDQYAMP
B3: HA-MmSTING stably expressed in MEF Sting-/- cells (MEF^MmSTING) (natural protein, Mus musculus)
chain: MPYSNLHPAIPRPRGHRSKYVALIFLVASLMILWVAKDPPNHTLKYLALHLASHELGLLLKNLCCLAEELCHVQSRYQGSYWKAVRACLGCPIHCMAMILLSSYFYFLQNTADIYLSWMFGLLVLYKSLSMLLGLQSLTPAEVSAVCEEKKLNVAHGLAWSYYIGYLRLILPGLQARIRMFNQLHNNMLSGAGSRRLYILFPLDCGVPDNLSVVDPNIRFRDMLPQQNIDRAGIKNRVYSNSVYEILENGQPAGVCILEYATPLQTLFAMSQDAKAGFSREDRLEQAKLFCRTLEEILEDVPESRNNCRLIVYQEPTDGNSFSLSQEVLRHIRQEEKEEVTMNAPMTSVAPPPSVLSQEPRLLISGMDQPLPLRTDLI
B4: HA-NvSTING stably expressed in MEF Sting-/- cells (MEF^NvSTING) (natural protein, Nematostella vectensis)
chain: MRRAEENNGFGTIPKRRNQHTPFYASIGMIVVIIVAFTSYHITSYGDDRNRAMRQYSFTFSLAYLAFLVGELLRRCCLFAEEYRHIETRYNGSLKKAIQTTFSFGHNNVLFVASLLFFVVFVASNDPNGSSSVIQGNSTAEPHTEMRQTSGWQGLWGQFIISALLTPLVVHLLGLRELSKVEESQLNEKENKNVADGLAWSYYFGYLKFVLPELEKQIEKTSKFRSKEKFVKKMFILIPSNCFWDDKIPGSDYDPQNRITFEGNTEPLEKTRGGVFLRHYKHSVYEIKDGENEPWFCIMEYATPLLTLYDMSVAQPGELSREERDAQVVVFLRKLQDILEGDRACQGKYELVTFSPDRDLADVMLRKLKDSELEIGG

This series deals with the molecule itself. In words: native gel or EMSA. For orientation: In EMSA bound probe runs differently from free probe, usually more slowly.
As for B1, the stoichiometry N – broadly, the number of molecules, sites or subunits per partner or assembly – is ≥ 4.
Consider B2, for which the “stoichiometry N” value is 4.
For the protein B3, the “stoichiometry N” value was ≥ 4.
In the case of B4, the “stoichiometry N” value was ≥ 4.
